Patent publication US20210003577A1 (MAYO FOUNDATION FOR MEDICAL EDUCATION AND RESEARCH, published 2021)

Key:
[1] = target: T1, endogenous TET3 in C4-2CON and C4-2ENZ-R cells (human, UniProt O43151 1-1795, limits assumed); test: co-immunoprecipitation of endogenous proteins, C4-2CON and C4-2ENZ-R cells
T1 construct: Endogenous protein in cell lysate for co-IP

[2] = target: T2, endogenous TET1 in C4-2CON and C4-2ENZ-R cells (human, UniProt Q8NFU7 1-2136, limits assumed); test: as above
T2 construct: Endogenous protein in cell lysate for co-IP
T2 sequence (Q8NFU7 whole entry): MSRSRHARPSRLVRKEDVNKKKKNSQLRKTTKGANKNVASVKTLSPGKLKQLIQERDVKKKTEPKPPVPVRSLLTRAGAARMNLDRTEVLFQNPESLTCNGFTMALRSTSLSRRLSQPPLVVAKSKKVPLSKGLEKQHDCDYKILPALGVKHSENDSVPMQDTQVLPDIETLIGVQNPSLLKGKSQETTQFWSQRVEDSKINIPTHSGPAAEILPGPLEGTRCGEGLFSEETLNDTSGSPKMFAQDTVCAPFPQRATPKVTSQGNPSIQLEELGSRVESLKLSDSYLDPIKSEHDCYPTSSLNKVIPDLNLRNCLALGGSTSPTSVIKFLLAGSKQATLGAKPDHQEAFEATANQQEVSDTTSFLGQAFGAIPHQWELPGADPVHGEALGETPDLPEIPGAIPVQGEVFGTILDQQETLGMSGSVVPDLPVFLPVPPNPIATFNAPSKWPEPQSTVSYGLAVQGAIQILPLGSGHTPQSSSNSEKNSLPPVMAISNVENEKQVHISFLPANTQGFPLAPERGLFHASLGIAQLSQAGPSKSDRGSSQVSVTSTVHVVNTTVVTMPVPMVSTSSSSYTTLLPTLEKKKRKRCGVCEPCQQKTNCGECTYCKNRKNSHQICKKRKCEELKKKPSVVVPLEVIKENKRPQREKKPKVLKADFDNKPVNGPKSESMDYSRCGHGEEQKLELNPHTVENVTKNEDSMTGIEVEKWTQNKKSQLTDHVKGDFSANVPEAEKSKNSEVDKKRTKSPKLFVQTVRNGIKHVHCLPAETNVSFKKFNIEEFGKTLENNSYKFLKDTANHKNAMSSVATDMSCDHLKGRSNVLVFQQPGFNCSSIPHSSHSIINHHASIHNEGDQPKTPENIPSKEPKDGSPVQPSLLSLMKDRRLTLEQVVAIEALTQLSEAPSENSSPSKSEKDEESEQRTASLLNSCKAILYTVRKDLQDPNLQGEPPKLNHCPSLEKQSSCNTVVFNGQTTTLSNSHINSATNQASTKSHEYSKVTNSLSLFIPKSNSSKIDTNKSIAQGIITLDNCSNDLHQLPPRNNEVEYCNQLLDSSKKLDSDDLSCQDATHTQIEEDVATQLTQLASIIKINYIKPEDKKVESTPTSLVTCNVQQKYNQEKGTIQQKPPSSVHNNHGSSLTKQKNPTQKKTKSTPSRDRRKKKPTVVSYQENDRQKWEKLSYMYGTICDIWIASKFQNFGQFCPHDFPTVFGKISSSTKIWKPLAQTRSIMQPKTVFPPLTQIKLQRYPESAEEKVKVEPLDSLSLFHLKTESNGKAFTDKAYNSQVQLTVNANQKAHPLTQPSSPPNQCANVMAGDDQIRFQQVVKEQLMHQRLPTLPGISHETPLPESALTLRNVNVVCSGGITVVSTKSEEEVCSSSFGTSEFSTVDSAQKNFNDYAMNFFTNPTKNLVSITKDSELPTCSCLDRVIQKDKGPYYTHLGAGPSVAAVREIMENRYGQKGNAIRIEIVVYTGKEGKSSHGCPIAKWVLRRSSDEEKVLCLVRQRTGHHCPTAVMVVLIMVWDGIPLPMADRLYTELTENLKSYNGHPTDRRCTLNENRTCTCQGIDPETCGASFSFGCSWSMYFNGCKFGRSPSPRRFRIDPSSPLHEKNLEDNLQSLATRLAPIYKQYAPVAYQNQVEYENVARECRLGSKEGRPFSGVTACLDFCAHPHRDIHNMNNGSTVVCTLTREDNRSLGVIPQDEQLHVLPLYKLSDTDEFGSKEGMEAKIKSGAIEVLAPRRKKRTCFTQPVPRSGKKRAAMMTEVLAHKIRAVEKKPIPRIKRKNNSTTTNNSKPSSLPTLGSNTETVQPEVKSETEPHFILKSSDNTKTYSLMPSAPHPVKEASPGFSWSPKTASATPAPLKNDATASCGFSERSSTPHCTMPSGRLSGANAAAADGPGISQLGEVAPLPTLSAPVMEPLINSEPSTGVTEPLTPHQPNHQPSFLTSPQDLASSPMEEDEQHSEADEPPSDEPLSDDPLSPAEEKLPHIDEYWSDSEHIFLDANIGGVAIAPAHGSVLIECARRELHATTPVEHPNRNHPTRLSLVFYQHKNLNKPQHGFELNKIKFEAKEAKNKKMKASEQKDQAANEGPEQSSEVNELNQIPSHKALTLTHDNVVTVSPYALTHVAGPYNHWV

T1 sequence (O43151 whole entry): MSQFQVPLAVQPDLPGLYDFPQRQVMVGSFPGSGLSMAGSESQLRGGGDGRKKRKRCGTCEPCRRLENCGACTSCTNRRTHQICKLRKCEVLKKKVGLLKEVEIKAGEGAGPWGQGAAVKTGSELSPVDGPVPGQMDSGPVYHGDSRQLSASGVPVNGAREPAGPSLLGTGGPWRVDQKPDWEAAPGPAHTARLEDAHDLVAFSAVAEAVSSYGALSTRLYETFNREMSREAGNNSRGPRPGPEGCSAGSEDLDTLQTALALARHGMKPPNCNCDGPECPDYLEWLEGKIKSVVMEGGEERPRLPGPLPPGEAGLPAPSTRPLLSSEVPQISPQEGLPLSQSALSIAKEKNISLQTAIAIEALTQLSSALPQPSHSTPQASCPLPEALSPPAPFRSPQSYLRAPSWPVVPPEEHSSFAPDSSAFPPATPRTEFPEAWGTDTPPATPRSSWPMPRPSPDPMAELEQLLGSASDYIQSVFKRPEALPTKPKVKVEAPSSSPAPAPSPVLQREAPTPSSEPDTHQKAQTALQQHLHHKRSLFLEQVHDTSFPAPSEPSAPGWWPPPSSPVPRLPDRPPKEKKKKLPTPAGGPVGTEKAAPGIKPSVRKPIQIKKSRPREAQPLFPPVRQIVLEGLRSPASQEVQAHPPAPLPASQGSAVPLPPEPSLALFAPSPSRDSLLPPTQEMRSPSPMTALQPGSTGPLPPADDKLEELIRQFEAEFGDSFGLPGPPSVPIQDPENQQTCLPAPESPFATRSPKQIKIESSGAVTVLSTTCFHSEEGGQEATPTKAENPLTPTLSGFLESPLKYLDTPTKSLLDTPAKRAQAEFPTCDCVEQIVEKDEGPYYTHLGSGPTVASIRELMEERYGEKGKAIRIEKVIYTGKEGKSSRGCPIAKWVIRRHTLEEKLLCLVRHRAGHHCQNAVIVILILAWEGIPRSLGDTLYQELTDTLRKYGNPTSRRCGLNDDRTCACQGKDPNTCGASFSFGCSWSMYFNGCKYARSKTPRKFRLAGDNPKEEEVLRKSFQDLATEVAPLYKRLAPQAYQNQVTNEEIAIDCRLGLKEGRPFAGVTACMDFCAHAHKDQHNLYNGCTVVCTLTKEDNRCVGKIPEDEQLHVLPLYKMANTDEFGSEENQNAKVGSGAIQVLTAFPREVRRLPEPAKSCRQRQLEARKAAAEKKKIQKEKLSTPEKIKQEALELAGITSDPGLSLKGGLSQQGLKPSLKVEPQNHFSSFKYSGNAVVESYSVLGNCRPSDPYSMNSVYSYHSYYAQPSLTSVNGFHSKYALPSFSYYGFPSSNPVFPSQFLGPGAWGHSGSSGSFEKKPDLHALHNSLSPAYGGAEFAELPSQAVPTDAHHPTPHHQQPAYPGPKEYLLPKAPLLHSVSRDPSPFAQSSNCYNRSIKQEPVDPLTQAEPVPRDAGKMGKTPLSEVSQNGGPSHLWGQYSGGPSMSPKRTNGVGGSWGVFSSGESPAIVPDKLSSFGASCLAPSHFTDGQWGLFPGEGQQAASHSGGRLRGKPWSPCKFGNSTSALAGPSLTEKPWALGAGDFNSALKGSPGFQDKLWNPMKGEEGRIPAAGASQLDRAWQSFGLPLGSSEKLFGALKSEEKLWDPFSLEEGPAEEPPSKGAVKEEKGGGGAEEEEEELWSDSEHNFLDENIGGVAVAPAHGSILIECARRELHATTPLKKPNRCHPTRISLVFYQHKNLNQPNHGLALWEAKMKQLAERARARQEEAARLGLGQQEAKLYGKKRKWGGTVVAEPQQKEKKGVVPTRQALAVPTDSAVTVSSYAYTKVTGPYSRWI

binding result [1]: no binding | binding result [2]: no binding
B1: endogenous AR in C4-2CON and C4-2ENZ-R cells (receptor, human, UniProt P10275 1-920, looked up)
chain: MEVQLGLGRVYPRPPSKTYRGAFQNLFQSVREVIQNPGPRHPEAASAAPPGASLLLLQQQQQQQQQQQQQQQQQQQQQQQETSPRQQQQQQGEDGSPQAHRRGPTGYLVLDEEQQPSQPQSALECHPERGCVPEPGAAVAASKGLPQQLPAPPDEDDSAAPSTLSLLGPTFPGLSSCSADLKDILSEASTMQLLQQQQQEAVSEGSSSGRAREASGAPTSSKDNYLGGTSTISDNAKELCKAVSVSMGLGVEALEHLSPGEQLRGDCMYAPLLGVPPAVRPTPCAPLAECKGSLLDDSAGKSTEDTAEYSPFKGGYTKGLEGESLGCSGSAAAGSSGTLELPSTLSLYKSGALDEAAAYQSRDYYNFPLALAGPPPPPPPPHPHARIKLENPLDYGSAWAAAAAQCRYGDLASLHGAGAAGPGSGSPSAAASSSWHTLFTAEEGQLYGPCGGGGGGGGGGGGGGGGGGGGGGGEAGAVAPYGYTRPPQGLAGQESDFTAPDVWYPGGMVSRVPYPSPTCVKSEMGPWMDSYSGPYGDMRLETARDHVLPIDYYFPPQKTCLICGDEASGCHYGALTCGSCKVFFKRAAEGKQKYLCASRNDCTIDKFRRKNCPSCRLRKCYEAGMTLGARKLKKLGNLKLQEEGEASSTTSPTEETTQKLTVSHIEGYECQPIFLNVLEAIEPGVVCAGHDNNQPDSFAALLSSLNELGERQLVHVVKWAKALPGFRNLHVDDQMAVIQYSWMGLMVFAMGWRSFTNVNSRMLYFAPDLVFNEYRMHKSRMYSQCVRMRHLSQEFGWLQITPQEFLCMKALLLFSIIPVDGLKNQKFFDELRMNYIKELDRIIACKRKNPTSCSRRFYQLTKLLDSVQPIARELHQFTFDLLIKSHMVSVDFPEMMAEIISVQVPKILSGKVKPIYFHTQ
notes: also called androgen receptor; ARFL
